Reference: the RNAGym collection of RNA variant scans (doi:10.7554/elife.90254)

B1: LINE1-full (parent)
chain: UACGUAGGUGGUUUUCCCCUGAUAGUGCUAAGGGGGCCUGGAAGUUUGGACUGGGCAGAGCUCAACACAGCGUGGCAAAGUGGCUGUGGCUAGACUGCCUCUCUGGAUUCCUCGUCACUCAGCAGGGCAUCUCUGAGAGAAAUGCC

Variants of: B1
Assay: self-cleavage, relative activity (ratio to wild type); higher = more cleavage; in vitro, sequencing; the parent is a self-cleaving ribozyme

Variant	self-cleavage
UACGUAGGUGGUUUUCCCCUGAUAGUGCUAAGGGGGCCUGGAAGUUUGGACUGGGCAGAGCUCAACACAGCGAGGCAAAGUGGCUGUGGCUAGACUGCCUCUCUGGAUUCCUCGUCACUCAGCAGGGCAUCACUGAGAGAAAUGCC [U73A U132A]	1.73
UACGUAGGUGGUUUUCCCCUGAUAGUGCUAAGGGGGCCUGGAAGUUUGGACUGGGCAGAGCUCAACACAGCGAGGCAAAGUGGCUGUGGCUAGACUGCCUCUCUGGAUUCCUCGUCACUCAGCAGGGCAUCCCUGAGAGAAAUGCC [U73A U132C]	1.53
UACGUAGGUGGUUUUCCCCUGAUAGUGCUAAGGGGGCCUGGAAGUUUGGACUGGGCAGAGCUCAACACAGCGCGGCAAAGUGGCUGUGGCUAGACUGCUUCUCUGGAUUCCUCGUCACUCAGCAGGGCAUCUCUGAGAGAAAUGCC [U73C C99U]	1.06
UACGUAGGUGGUUUUCCCCUGAUAGUGCUAAGGGGGCCUGGAAGUUUGGACUGGGCAGAGCUCAACACAGCGCGGCACAGUGGCUGUGGCUAGACUGCCUCUCUGGAUUCCUCGUCACUCAGCAGGGCAUCUCUGAGAGAAAUGCC [U73C A78C]	0.77
UACGUAGGUGGUUUUCCCCUGAUAGUGCUAAGGGGGCCUGGAAGUUUGGACUGGGCAGAGCUCAACACAGCGCGGCAGAGUGGCUGUGGCUAGACUGCCUCUCUGGAUUCCUCGUCACUCAGCAGGGCAUCUCUGAGAGAAAUGCC [U73C A78G]	1.12
UACGUAGGUGGUUUUCCCCUGAUAGUGCUAAGGGGGCCUGGAAGUUUGGACUGGGCAGAGCUCAACACAGCGCGGCAAAGUGGCUGUGGCUAGACUGUCUCUCUGGAUUCCUCGUCACUCAGCAGGGCAUCUCUGAGAGAAAUGCC [U73C C98U]	0.36
UACGUAGGUGGUUUUCCCCUGAUAGUGCUAAGGGGGCCUGGAAGUUUGGACUGGGCAGAGCUCAACACAGCGCGGCAAAGUGGCUGUGGCUAGACUGCCUCUCUGGAUUCCUCGUCACUCAGCAGGGCAUCUCUGAGAGAAAUGCU [U73C C146U]	1.04
UACGUAGGUGGUUUUCCCCUGAUAGUGCUAAGGGGGCCUGGAAGUUUGGACUGGGCAGAGCUCAACACAGCGCGGCAAAGUGGCUGUGGCUAGACUGCCUCUCUGGAUUCCUCGUCACUCAGCAGGGCAUCUCUGAGAGAAAUGCA [U73C C146A]	2.24
UACGUAGGUGGUUUUCCCCUGAUAGUGCUAAGGGGGCCUGGAAGUUUGGACUGGGCAGAGCUCAACACAGCGCGGCAAAGUGGCUGUGGCUAGACUGCCUCUCUGGAUUCCUUGUCACUCAGCAGGGCAUCUCUGAGAGAAAUGCC [U73C C113U]	1.85
UACGUAGGUGGUUUUCCCCUGAUAGUGCUAAGGGGGCCUGGAAGUUUGGACUGGGCAGAGCUCAACACAGCGCGGCAAAGUGGCUGUGGCUAGACUGCCUCUCUGGGUUCCUCGUCACUCAGCAGGGCAUCUCUGAGAGAAAUGCC [U73C A107G]	2.23
UACGUAGGUGGUUUUCCCCUGAUAGUGCUAAGGGGGCCUGGAAGUUUGGACUGGGCAGAGCUCAACACAGCGCGGCAAAGUGGCUGUGGCUAGACUGCCUCUCUGGAUUCCUCGUCACUAAGCAGGGCAUCUCUGAGAGAAAUGCC [U73C C120A]	1.97
UACGUAGGUGGUUUUCCCCUGAUAGUGCUAAGGGGGCCUGGAAGUUUGGACUGGGCAGAGCUCAACACAGCGCGGCGAAGUGGCUGUGGCUAGACUGCCUCUCUGGAUUCCUCGUCACUCAGCAGGGCAUCUCUGAGAGAAAUGCC [U73C A77G]	2.78
UACGUAGGUGGUUUUCCCCUGAUAGUGCUAAGGGGGCCUGGAAGUUUGGACUGGGCAGAGCUCAACACAGCGCGGCAAAGUGGCUGUGGCUAGACUGCCUCUCUGGAUUCCUCGUCGCUCAGCAGGGCAUCUCUGAGAGAAAUGCC [U73C A117G]	1.23
UACGUAGGUGGUUUUCCCCUGAUAGUGCUAAGGGGGCCUGGAAGUUUGGACUGGGCAGAGCUCAACACAGCGCGGCAAAGUGGCUGUGGCUAGACUGCCUCUCUGGAUUCCUCGUCUCUCAGCAGGGCAUCUCUGAGAGAAAUGCC [U73C A117U]	2.34
UACGUAGGUGGUUUUCCCCUGAUAGUGCUAAGGGGGCCUGGAAGUUUGGACUGGGCAGAGCUCAACACAGCGAGGCAAAGUGGCUGUGGCUAGACUGCCUCUCUGGAUCCCUCGUCACUCAGCAGGGCAUCUCUGAGAGAAAUGCC [U73A U109C]	1.05
UACGUAGGUGGUUUUCCCCUGAUAGUGCUAAGGGGGCCUGGAAGUUUGGACUGGGCAGAGCUCAACACAGCGCGGCAAAGUGGCUGUGGCUGGACUGCCUCUCUGGAUUCCUCGUCACUCAGCAGGGCAUCUCUGAGAGAAAUGCC [U73C A92G]	0.16
UACGUAGGUGGUUUUCCCCUGAUAGUGCUAAGGGGGCCUGGAAGUUUGGACUGGGCAGAGCUCAACACAGCGCGGCAAAGUGGCUGUGGUUAGACUGCCUCUCUGGAUUCCUCGUCACUCAGCAGGGCAUCUCUGAGAGAAAUGCC [U73C C90U]	0.01
UACGUAGGUGGUUUUCCCCUGAUAGUGCUAAGGGGGCCUGGAAGUUUGGACUGGGCAGAGCUCAACACAGCGCGGCAAAGUGGCUGUGGGUAGACUGCCUCUCUGGAUUCCUCGUCACUCAGCAGGGCAUCUCUGAGAGAAAUGCC [U73C C90G]	0.01
UACGUAGGUGGUUUUCCCCUGAUAGUGCUAAGGGGGCCUGGAAGUUUGGACUGGGCAGAGCUCAACACAGCGAGGCAAAGUGGCUGUGGCUAGACUGCCUCUCUGGAUUCCUCGUCACUCAGCAGGGCAUCUCUGAGAGAAACGCC [U73A U143C]	1.4
UACGUAGGUGGUUUUCCCCUGAUAGUGCUAAGGGGGCCUGGAAGUUUGGACUGGGCAGAGCUCAACACAGCGAGGCAAAGUGGCUGUGGCUAGACUGCCUCUCUGGAUUCCUCGUCACUCAGCAGGGCAUCUCUGAGAGAAAAGCC [U73A U143A]	1.75

Variant	self-cleavage
UACGUAGGUGGUUUUCCCCUGAUAGUGCUAAGGGGGCCUGGAAGUUUGGACUGGGCAGAGCUCAACACAGCGCGGCAAAGUGGCUGUGGCUAGCCUGCCUCUCUGGAUUCCUCGUCACUCAGCAGGGCAUCUCUGAGAGAAAUGCC [U73C A94C]	0.32
UACGUAGGUGGUUUUCCCCUGAUAGUGCUAAGGGGGCCUGGAAGUUUGGACUGGGCAGAGCUCAACACAGCGCGGCAAAGUGGCUGUGGCUAGUCUGCCUCUCUGGAUUCCUCGUCACUCAGCAGGGCAUCUCUGAGAGAAAUGCC [U73C A94U]	0.69
UACGUAGGUGGUUUUCCCCUGAUAGUGCUAAGGGGGCCUGGAAGUUUGGACUGGGCAGAGCUCAACACAGCGCGGCAAAGUGGCUGUGGCUAGACUGCCUCUCUGGAUUCCUCGUCAAUCAGCAGGGCAUCUCUGAGAGAAAUGCC [U73C C118A]	1.46
UACGUAGGUGGUUUUCCCCUGAUAGUGCUAAGGGGGCCUGGAAGUUUGGACUGGGCAGAGCUCAACACAGCGCGGCAAAGUGGCUGUGGCUAGACUGCCUCUCUGGAUUCCUCGUCACUCAGCAGGGCAUCUCUGAGAGAAAUGAC [U73C C145A]	1.44
UACGUAGGUGGUUUUCCCCUGAUAGUGCUAAGGGGGCCUGGAAGUUUGGACUGGGCAGAGCUCAACACAGCGCGGCAAUGUGGCUGUGGCUAGACUGCCUCUCUGGAUUCCUCGUCACUCAGCAGGGCAUCUCUGAGAGAAAUGCC [U73C A79U]	1.65
UACGUAGGUGGUUUUCCCCUGAUAGUGCUAAGGGGGCCUGGAAGUUUGGACUGGGCAGAGCUCAACACAGCGCGGCAAAGUGGCUGUGGCUAGACUGCCUCUCUGGAUUCCUCGUCACUCCGCAGGGCAUCUCUGAGAGAAAUGCC [U73C A121C]	0.54
UACGUAGGUGGUUUUCCCCUGAUAGUGCUAAGGGGGCCUGGAAGUUUGGACUGGGCAGAGCUCAACACAGCGCGGCAAAGUGGCUGUGGCUAGACUGCCUCUCUGGAUUCCUCGUCACUCGGCAGGGCAUCUCUGAGAGAAAUGCC [U73C A121G]	2.05
UACGUAGGUGGUUUUCCCCUGAUAGUGCUAAGGGGGCCUGGAAGUUUGGACUGGGCAGAGCUCAACACAGCGAGGCAAAGUGGCUGUGGCUAGACUGCCUCUCUGGAUUCCUCGUCACUCAGCAGGGCAUCUCAGAGAGAAAUGCC [U73A U134A]	1.28
UACGUAGGUGGUUUUCCCCUGAUAGUGCUAAGGGGGCCUGGAAGUUUGGACUGGGCAGAGCUCAACACAGCGAGGCAAAGUGGCUGUGGCUAGACUGCCUCUCUGGAUUCCUCGUCACUCAGCAGGGCAUCUCGGAGAGAAAUGCC [U73A U134G]	0.45
UACGUAGGUGGUUUUCCCCUGAUAGUGCUAAGGGGGCCUGGAAGUUUGGACUGGGCAGAGCUCAACACAGCGAGGCAAAGUGGCUGUGGCUAGACUGCCUCUCUGGAUUCCUCGUCACUCAGCAGGGCAUCUCCGAGAGAAAUGCC [U73A U134C]	1.46
UACGUAGGUGGUUUUCCCCUGAUAGUGCUAAGGGGGCCUGGAAGUUUGGACUGGGCAGAGCUCAACACAGCGCGGCAAAGUGGCUGUGGCUAGACUGCCUCUCUGGAUUCCUCGUCACUCAGCAGGGCAUCUCUGGGAGAAAUGCC [U73C A136G]	1.64
UACGUAGGUGGUUUUCCCCUGAUAGUGCUAAGGGGGCCUGGAAGUUUGGACUGGGCAGAGCUCAACACAGCGAGGCAAAGUGGCUGUGGCUAGACUGCCUCUCUGGAGUCCUCGUCACUCAGCAGGGCAUCUCUGAGAGAAAUGCC [U73A U108G]	0.44
UACGUAGGUGGUUUUCCCCUGAUAGUGCUAAGGGGGCCUGGAAGUUUGGACUGGGCAGAGCUCAACACAGCGAGGCAAAGUGGCUGUGGCUAGACUGCCUCUCUGGACUCCUCGUCACUCAGCAGGGCAUCUCUGAGAGAAAUGCC [U73A U108C]	2.23
UACGUAGGUGGUUUUCCCCUGAUAGUGCUAAGGGGGCCUGGAAGUUUGGACUGGGCAGAGCUCAACACAGCGCGGCAAAGUGGCUGUGGCUAGACUGCCUCUCUGGAUUCCUCGUCACUCAGCAGGGCUUCUCUGAGAGAAAUGCC [U73C A129U]	2.11
UACGUAGGUGGUUUUCCCCUGAUAGUGCUAAGGGGGCCUGGAAGUUUGGACUGGGCAGAGCUCAACACAGCGAGGCAAAGUGGCUGUGGCUAGACUGCCCCUCUGGAUUCCUCGUCACUCAGCAGGGCAUCUCUGAGAGAAAUGCC [U73A U100C]	2.71
UACGUAGGUGGUUUUCCCCUGAUAGUGCUAAGGGGGCCUGGAAGUUUGGACUGGGCAGAGCUCAACACAGCGCGGCAAAGUGGCUGUGGCUAGACUGCCUCUCUGGAUUCCUCGUCACUCAGCAGGGCAUCUCUGAGGGAAAUGCC [U73C A138G]	2.26
UACGUAGGUGGUUUUCCCCUGAUAGUGCUAAGGGGGCCUGGAAGUUUGGACUGGGCAGAGCUCAACACAGCGCGGCAAAGUGGCUGUGGCUAGACUGCCUCUCUGGAUUCCUCGUCACUCAGCAGGGAAUCUCUGAGAGAAAUGCC [U73C C128A]	0.94
UACGUAGGUGGUUUUCCCCUGAUAGUGCUAAGGGGGCCUGGAAGUUUGGACUGGGCAGAGCUCAACACAGCGAGGCAAAGUGGCUGUGGCUAGACUGCCUCUCUGGAUUCCUCGACACUCAGCAGGGCAUCUCUGAGAGAAAUGCC [U73A U115A]	1.66
UACGUAGGUGGUUUUCCCCUGAUAGUGCUAAGGGGGCCUGGAAGUUUGGACUGGGCAGAGCUCAACACAGCGCGGCAAAGUGGCUGUGGCUAGACUGCCUCUCUGGAUUCCUCGUCACUCAGUAGGGCAUCUCUGAGAGAAAUGCC [U73C C123U]	1.05
